In patent US20160264953A1:
Values belong to the molecule of their own block, whether it stands above or below them.

How the values were obtained:
[1] = molecular target: mannose-6-phosphate receptor; experiment: relative binding to mannose-6-phosphate receptor; method not given
[2] = molecular target: mannose-6-phosphate receptor; experiment: relative binding to mannose-6-phosphate receptor (Fabrazyme = 100); method not given

Binding to M6Pr (%) [1]: 100%
Molecule: Fabrazyme® (from UniProt P06280 32-429) (enzyme)

Binding to M6Pr (%) [2]: 130%
B1: recombinant human α-galactosidase-A protein provided herein (FZ2G) (enzyme)
chain: LDNGLARTPTMGWLHWERFMCNLDCQEEPDSCISEKLFMEMAELMVSEGWKDAGYEYLCIDDCWMAPQRDSEGRLQADPQRFPHGIRQLANYVHSKGLKLGIYADVGNKTCAGFPGSFGYYDIDAQTFADWGVDLLKFDGCYCDSLENLADGYKHMSLALNRTGRSIVYSCEWPLYMWPFQKPNYTEIRQYCNHWRNFADIDDSWKSIKSILDWTSFNQERIVDVAGPGGWNDPDMLVIGNFGLSWNQQVTQMALWAIMAAPLFMSNDLRHISPQAKALLQDKDVIAINQDPLGKQGYQLRQGDNFEVWERPLSGLAWAVAMINRQEIGGPRSYTIAVASLGKGVACNPACFITQLLPVKRKLGFYEWTSRLRSHINPTGTVLLQLENTMQMSLKDLL
modifications: N-linked oligosaccharides (including mannose-6-phosphate and bis-mannose-6-phosphate oligosaccharides) at Asn108, Asn161 and Asn184
